From PMC4669440

Experiments:
Conditions in all cases: glycan lost; control: WT mice
[1] = H&E histology of long bone
[2] = three-point bending of femur and tibia
[3] = TRAP staining, 6-month-old mice
[4] = immunohistochemistry, anti-DMP1-N 9B6.3, cortical bone
[5] = X-ray radiography of long bones

B1: Dentin matrix protein 1 (DMP1): S89G (protein)
parent chain: MKTVILLVFLWGLSCALPVARYHNTESESSEERTGDLAGSPPPPTNSESSEESQASPEGQANSDHTDSSESGEELGYDRGQYRPAGGLSKSTGTGADKEDDEDDSGDDTFGDEDNDLGPEEGQWGGPSKLDSDEDSTDTTQSSEDSTSQENSAQDTPSDSKDHDSEDEADSRPEAGDSTQDSESEEQRVGGGSEGESSHGDGSEFDDEGMQSDDPESTRSDRGHARMSSAGIRSEESKGDHEPTSTQDSDDSQSVEFSSRKSFRRSHVSEEDYRGELTDSNSRETQSDSTEDTASKEESRSESQEDTAESQSQEDSPEGQDPSSESSEEAGEPSQESSSESQEGVTSESRGDNPDNTSQAGDQEDSESSEEDSLNTFSSSESQSTEEQADSESNESLSLSEESQESAQDGDSSSQEGLQSQSASTESRSQESQSEQDSRSEEDSDSQDSSRSKEESNSTGSASSSEEDIRPKNMEADSRKLIVDAYHNKPIGDQDDNDCQDGY
decreases: other: articular cartilage thickness [1] | other: bone mechanical strength [2] | other: osteoclast number in bone [3] | expression_or_secretion [4] | other: radiographic bone density [5]
